Test results published in the supplement of paper PMC9112550, “Optimization of the antimicrobial peptide Bac7 by deep mutational scanning” (BMC Biology, 2022).

What follows are sequences tested on Escherichia coli TOP10 (assay: shrunken log2 fold change of peptide-encoding DNA abundance (4.5 h post-induction vs induction); higher = less antimicrobial activity (less host growth inhibition)). Conditions: time post-induction: 4.5 h; library: site-saturation at positions 5, 18, 19, 20.
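Note: peptides expressed intracellularly from a pBAD plasmid library in pooled LB shake-flask culture, induced with 0.3% L-arabinose, DNA abundance read by NGS, three biological replicates, DESeq2 with apeglm shrinkage.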

| Sequence | shrunken log2 fold change |
| --- | --- |
| RRIRNRPPRLPRPRPRPPIGPRP | 0.106 |
| RRIRNRPPRLPRPRPRPPIIPRP | -0.192 |
| RRIRNRPPRLPRPRPRPPIMPRP | -0.549 |
| RRIRNRPPRLPRPRPRPPMGPRP | -0.0346 |
| RRIRNRPPRLPRPRPRPPMSPRP | -0.0527 |
| RRIRNRPPRLPRPRPRPPNDPRP | 0.182 |
| RRIRNRPPRLPRPRPRPPNIPRP | -0.226 |
| RRIRNRPPRLPRPRPRPPNQPRP | -0.0523 |
| RRIRNRPPRLPRPRPRPPPSPRP | 1 |
| RRIRNRPPRLPRPRPRPPQDPRP | 0.0281 |
| RRIRNRPPRLPRPRPRPPQHPRP | 0.149 |
| RRIRNRPPRLPRPRPRPPRAPRP | 0.658 |
| RRIRNRPPRLPRPRPRPPRMPRP | 0.24 |
| RRIRNRPPRLPRPRPRPPRRPRP | 0.518 |
| RRIRNRPPRLPRPRPRPPTHPRP | 0.0725 |
| RRIRNRPPRLPRPRPRPPTQPRP | 0.267 |
| RRIRNRPPRLPRPRPRPPTSPRP | 0.298 |
| RRIRNRPPRLPRPRPRPPTWPRP | 0.434 |
| RRIRNRPPRLPRPRPRPPVPPRP | 0.384 |
| RRIRNRPPRLPRPRPRPPWIPRP | -0.0807 |
| RRIRNRPPRLPRPRPRPPWWPRP | 0.788 |
| RRIRNRPPRLPRPRPRPQADPRP | -0.0176 |

| Sequence | shrunken log2 fold change |
| --- | --- |
| RRIRNRPPRLPRPRPRPQCFPRP | 0.242 |
| RRIRNRPPRLPRPRPRPQCNPRP | -0.468 |
| RRIRNRPPRLPRPRPRPQDNPRP | 0.0553 |
| RRIRNRPPRLPRPRPRPQENPRP | -0.151 |
| RRIRNRPPRLPRPRPRPQFFPRP | -0.0257 |
| RRIRNRPPRLPRPRPRPQHCPRP | -0.065 |
| RRIRNRPPRLPRPRPRPQHSPRP | -0.428 |
| RRIRNRPPRLPRPRPRPQKNPRP | -0.318 |
| RRIRNRPPRLPRPRPRPQLIPRP | -0.0323 |
| RRIRNRPPRLPRPRPRPQLKPRP | -0.0663 |
| RRIRNRPPRLPRPRPRPQLRPRP | 0.0493 |
| RRIRNRPPRLPRPRPRPQMAPRP | -0.23 |
| RRIRNRPPRLPRPRPRPQNNPRP | -0.734 |
| RRIRNRPPRLPRPRPRPQNRPRP | -0.184 |
| RRIRNRPPRLPRPRPRPQNTPRP | -0.589 |
| RRIRNRPPRLPRPRPRPQNWPRP | -0.146 |
| RRIRNRPPRLPRPRPRPQPQPRP | -0.0877 |
| RRIRNRPPRLPRPRPRPQQLPRP | -0.0538 |
| RRIRNRPPRLPRPRPRPQRAPRP | 0.0993 |
| RRIRNRPPRLPRPRPRPQRGPRP | 0.237 |
| RRIRNRPPRLPRPRPRPQSQPRP | -0.7 |
| RRIRNRPPRLPRPRPRPQTCPRP | 0.0139 |

| Sequence | shrunken log2 fold change |
| --- | --- |
| RRIRNRPPRLPRPRPRPQTFPRP | -0.0594 |
| RRIRNRPPRLPRPRPRPQTKPRP | 0.173 |
| RRIRNRPPRLPRPRPRPQTMPRP | -0.238 |
| RRIRNRPPRLPRPRPRPQYTPRP | -0.737 |
| RRIRNRPPRLPRPRPRPRDEPRP | -0.0923 |
| RRIRNRPPRLPRPRPRPRFKPRP | 0.0387 |
| RRIRNRPPRLPRPRPRPRFMPRP | -0.098 |
| RRIRNRPPRLPRPRPRPRFPPRP | -0.365 |
| RRIRNRPPRLPRPRPRPRGAPRP | 0.601 |
| RRIRNRPPRLPRPRPRPRHKPRP | -0.369 |
| RRIRNRPPRLPRPRPRPRHPPRP | 0.136 |
| RRIRNRPPRLPRPRPRPRHTPRP | -0.096 |
| RRIRNRPPRLPRPRPRPRHVPRP | -0.119 |
| RRIRNRPPRLPRPRPRPRICPRP | 0.101 |
| RRIRNRPPRLPRPRPRPRIKPRP | 0.0822 |
| RRIRNRPPRLPRPRPRPRKCPRP | -0.0149 |
| RRIRNRPPRLPRPRPRPRPAPRP | 0.313 |
| RRIRNRPPRLPRPRPRPRPEPRP | 0.295 |
| RRIRNRPPRLPRPRPRPRQHPRP | -0.103 |
| RRIRNRPPRLPRPRPRPRSQPRP | -0.0986 |
| RRIRNRPPRLPRPRPRPRTGPRP | -0.0238 |
| RRIRNRPPRLPRPRPRPRVSPRP | 0.0988 |

| Sequence | shrunken log2 fold change |
| --- | --- |
| RRIRNRPPRLPRPRPRPRWIPRP | 0.0158 |
| RRIRNRPPRLPRPRPRPRWVPRP | -0.172 |
| RRIRNRPPRLPRPRPRPSCFPRP | -0.398 |
| RRIRNRPPRLPRPRPRPSCMPRP | -0.755 |
| RRIRNRPPRLPRPRPRPSDVPRP | -1.29 |
| RRIRNRPPRLPRPRPRPSEAPRP | 0.00843 |
| RRIRNRPPRLPRPRPRPSFIPRP | -0.934 |
| RRIRNRPPRLPRPRPRPSFWPRP | -0.056 |
| RRIRNRPPRLPRPRPRPSGGPRP | 0.0638 |
| RRIRNRPPRLPRPRPRPSGLPRP | 0.0284 |
| RRIRNRPPRLPRPRPRPSGNPRP | -0.315 |
| RRIRNRPPRLPRPRPRPSHEPRP | 0.00187 |
| RRIRNRPPRLPRPRPRPSHGPRP | 0.108 |
| RRIRNRPPRLPRPRPRPSHRPRP | 0.0906 |
| RRIRNRPPRLPRPRPRPSIQPRP | -0.623 |
| RRIRNRPPRLPRPRPRPSISPRP | -0.256 |
| RRIRNRPPRLPRPRPRPSIYPRP | -0.449 |
| RRIRNRPPRLPRPRPRPSKHPRP | -0.545 |
| RRIRNRPPRLPRPRPRPSKKPRP | -0.0392 |
| RRIRNRPPRLPRPRPRPSKRPRP | -0.0331 |
| RRIRNRPPRLPRPRPRPSLPPRP | -0.378 |
| RRIRNRPPRLPRPRPRPSLSPRP | -0.205 |

| Sequence | shrunken log2 fold change |
| --- | --- |
| RRIRNRPPRLPRPRPRPSNEPRP | -0.717 |
| RRIRNRPPRLPRPRPRPSNIPRP | -0.28 |
| RRIRNRPPRLPRPRPRPSNPPRP | 0.0568 |
| RRIRNRPPRLPRPRPRPSNTPRP | -0.446 |
| RRIRNRPPRLPRPRPRPSPLPRP | -0.334 |
| RRIRNRPPRLPRPRPRPSQSPRP | -0.169 |
| RRIRNRPPRLPRPRPRPSREPRP | -0.103 |
| RRIRNRPPRLPRPRPRPSRVPRP | 0.0304 |
| RRIRNRPPRLPRPRPRPSTWPRP | -0.332 |
| RRIRNRPPRLPRPRPRPSVEPRP | -0.254 |
| RRIRNRPPRLPRPRPRPSWTPRP | -0.211 |
| RRIRNRPPRLPRPRPRPSWWPRP | 0.28 |
| RRIRNRPPRLPRPRPRPTAEPRP | -0.0644 |
| RRIRNRPPRLPRPRPRPTARPRP | 0.198 |
| RRIRNRPPRLPRPRPRPTCYPRP | -0.226 |
| RRIRNRPPRLPRPRPRPTDNPRP | -0.353 |
| RRIRNRPPRLPRPRPRPTEFPRP | -0.043 |
| RRIRNRPPRLPRPRPRPTEMPRP | -0.283 |
| RRIRNRPPRLPRPRPRPTEVPRP | -0.268 |
| RRIRNRPPRLPRPRPRPTFCPRP | -0.379 |
| RRIRNRPPRLPRPRPRPTFLPRP | -0.272 |
